{"source": "the supplement of paper PMC9112550", "about": "“Optimization of the antimicrobial peptide Bac7 by deep mutational scanning” (BMC Biology, 2022);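 also: peptides expressed intracellularly from a pBAD plasmid library in pooled LB shake-flask culture, induced with 0.3% L-arabinose, DNA abundance read by NGS, three biological replicates, DESeq2 with apeglm shrinkage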"}
{"system": "Escherichia coli TOP10", "assay": "shrunken log2 fold change of peptide-encoding DNA abundance (4.5 h post-induction vs induction); higher = less antimicrobial activity (less host growth inhibition)", "conditions": "time post-induction: 4.5 h; library: site-saturation at positions 5, 18, 19, 20"}
{"sequence": "RRIRYRPPRLPRPRPRPVHQPRP", "shrunken log2 fold change": -0.0229}
{"sequence": "RRIRVRPPRLPRPRPRPHMTPRP", "shrunken log2 fold change": -0.277}
{"sequence": "RRIRTRPPRLPRPRPRPRKQPRP", "shrunken log2 fold change": 0.0743}
{"sequence": "RRIRFRPPRLPRPRPRPGQHPRP", "shrunken log2 fold change": 0.176}
{"sequence": "RRIRTRPPRLPRPRPRPSRPPRP", "shrunken log2 fold change": 0.202}
{"sequence": "RRIRPRPPRLPRPRPRPYFTPRP", "shrunken log2 fold change": -0.882}
{"sequence": "RRIRMRPPRLPRPRPRPIRNPRP", "shrunken log2 fold change": 0.00101}
{"sequence": "RRIRYRPPRLPRPRPRPEKKPRP", "shrunken log2 fold change": -0.0472}
{"sequence": "RRIRQRPPRLPRPRPRPSAPPRP", "shrunken log2 fold change": 0.175}
{"sequence": "RRIRVRPPRLPRPRPRPKEEPRP", "shrunken log2 fold change": 0.00911}
{"sequence": "RRIRERPPRLPRPRPRPHVRPRP", "shrunken log2 fold change": -0.105}
{"sequence": "RRIRIRPPRLPRPRPRPASIPRP", "shrunken log2 fold change": -0.361}
{"sequence": "RRIRHRPPRLPRPRPRPSQNPRP", "shrunken log2 fold change": -0.0324}
{"sequence": "RRIRSRPPRLPRPRPRPSEPPRP", "shrunken log2 fold change": -0.167}
{"sequence": "RRIRKRPPRLPRPRPRPIIDPRP", "shrunken log2 fold change": -0.139}
{"sequence": "RRIRLRPPRLPRPRPRPYSLPRP", "shrunken log2 fold change": -0.0459}
{"sequence": "RRIRTRPPRLPRPRPRPGVGPRP", "shrunken log2 fold change": 0.546}
{"sequence": "RRIRARPPRLPRPRPRPRIHPRP", "shrunken log2 fold change": -0.145}
{"sequence": "RRIRARPPRLPRPRPRPETLPRP", "shrunken log2 fold change": 1.15}
{"sequence": "RRIRYRPPRLPRPRPRPYYRPRP", "shrunken log2 fold change": -0.161}
{"sequence": "RRIRYRPPRLPRPRPRPQLHPRP", "shrunken log2 fold change": -0.395}
{"sequence": "RRIRIRPPRLPRPRPRPETRPRP", "shrunken log2 fold change": -0.0624}
{"sequence": "RRIRPRPPRLPRPRPRPSTSPRP", "shrunken log2 fold change": -0.0506}
{"sequence": "RRIRSRPPRLPRPRPRPCTKPRP", "shrunken log2 fold change": -0.581}
{"sequence": "RRIRDRPPRLPRPRPRPNMWPRP", "shrunken log2 fold change": -0.152}
{"sequence": "RRIRPRPPRLPRPRPRPHPEPRP", "shrunken log2 fold change": 0.203}
{"sequence": "RRIRTRPPRLPRPRPRPVKVPRP", "shrunken log2 fold change": 0.00854}
{"sequence": "RRIRQRPPRLPRPRPRPNEIPRP", "shrunken log2 fold change": -0.217}
{"sequence": "RRIRTRPPRLPRPRPRPGYYPRP", "shrunken log2 fold change": -0.442}
{"sequence": "RRIRTRPPRLPRPRPRPKLGPRP", "shrunken log2 fold change": 0.106}
{"sequence": "RRIRHRPPRLPRPRPRPPGTPRP", "shrunken log2 fold change": 0.0679}
{"sequence": "RRIRHRPPRLPRPRPRPWDNPRP", "shrunken log2 fold change": 0.0451}
{"sequence": "RRIRERPPRLPRPRPRPEEVPRP", "shrunken log2 fold change": -0.00101}
{"sequence": "RRIRCRPPRLPRPRPRPSRTPRP", "shrunken log2 fold change": 0.0175}
{"sequence": "RRIRIRPPRLPRPRPRPPQWPRP", "shrunken log2 fold change": 0.205}
{"sequence": "RRIRIRPPRLPRPRPRPNRHPRP", "shrunken log2 fold change": -0.0899}
{"sequence": "RRIRYRPPRLPRPRPRPRENPRP", "shrunken log2 fold change": 0.0246}
{"sequence": "RRIRFRPPRLPRPRPRPCWFPRP", "shrunken log2 fold change": -0.509}
{"sequence": "RRIRARPPRLPRPRPRPTRLPRP", "shrunken log2 fold change": 0.545}
{"sequence": "RRIRDRPPRLPRPRPRPFNAPRP", "shrunken log2 fold change": -0.0419}
{"sequence": "RRIRDRPPRLPRPRPRPSLNPRP", "shrunken log2 fold change": 0.138}
{"sequence": "RRIRGRPPRLPRPRPRPSPCPRP", "shrunken log2 fold change": -0.0911}
{"sequence": "RRIRGRPPRLPRPRPRPRSHPRP", "shrunken log2 fold change": 0.239}
{"sequence": "RRIRIRPPRLPRPRPRPEYIPRP", "shrunken log2 fold change": -0.667}
{"sequence": "RRIRLRPPRLPRPRPRPYPIPRP", "shrunken log2 fold change": 0.107}
{"sequence": "RRIRMRPPRLPRPRPRPHRVPRP", "shrunken log2 fold change": -0.0492}
{"sequence": "RRIRERPPRLPRPRPRPGVDPRP", "shrunken log2 fold change": 0.114}
{"sequence": "RRIRRRPPRLPRPRPRPQSDPRP", "shrunken log2 fold change": 0.244}
{"sequence": "RRIRVRPPRLPRPRPRPEMSPRP", "shrunken log2 fold change": 0.0206}
{"sequence": "RRIRHRPPRLPRPRPRPMVIPRP", "shrunken log2 fold change": -0.0264}
{"sequence": "RRIRVRPPRLPRPRPRPSYHPRP", "shrunken log2 fold change": -0.819}
{"sequence": "RRIRYRPPRLPRPRPRPNYRPRP", "shrunken log2 fold change": -0.306}
{"sequence": "RRIRCRPPRLPRPRPRPCLDPRP", "shrunken log2 fold change": 0.11}
{"sequence": "RRIRCRPPRLPRPRPRPHVFPRP", "shrunken log2 fold change": 0.161}
{"sequence": "RRIRDRPPRLPRPRPRPEAEPRP", "shrunken log2 fold change": 1.67}
{"sequence": "RRIRERPPRLPRPRPRPDHLPRP", "shrunken log2 fold change": -0.223}
{"sequence": "RRIRDRPPRLPRPRPRPDSFPRP", "shrunken log2 fold change": -0.00691}
{"sequence": "RRIRRRPPRLPRPRPRPWPAPRP", "shrunken log2 fold change": 0.448}
{"sequence": "RRIRMRPPRLPRPRPRPSPYPRP", "shrunken log2 fold change": -0.0611}
{"sequence": "RRIRPRPPRLPRPRPRPMDKPRP", "shrunken log2 fold change": -0.0612}
{"sequence": "RRIRMRPPRLPRPRPRPRLCPRP", "shrunken log2 fold change": 1.66}
{"sequence": "RRIRIRPPRLPRPRPRPIAFPRP", "shrunken log2 fold change": -0.0789}
{"sequence": "RRIRDRPPRLPRPRPRPGSEPRP", "shrunken log2 fold change": 0.0708}
{"sequence": "RRIRERPPRLPRPRPRPQHMPRP", "shrunken log2 fold change": -0.735}
{"sequence": "RRIRRRPPRLPRPRPRPWWEPRP", "shrunken log2 fold change": 1.82}
{"sequence": "RRIRCRPPRLPRPRPRPQLQPRP", "shrunken log2 fold change": 0.0481}
{"sequence": "RRIRDRPPRLPRPRPRPLDWPRP", "shrunken log2 fold change": 0.0834}
{"sequence": "RRIRCRPPRLPRPRPRPGWNPRP", "shrunken log2 fold change": -0.243}
{"sequence": "RRIRVRPPRLPRPRPRPIMFPRP", "shrunken log2 fold change": -0.0691}
{"sequence": "RRIRWRPPRLPRPRPRPGDDPRP", "shrunken log2 fold change": 0.351}
{"sequence": "RRIRQRPPRLPRPRPRPSSEPRP", "shrunken log2 fold change": 0.0507}
{"sequence": "RRIRMRPPRLPRPRPRPPLAPRP", "shrunken log2 fold change": 1.48}
{"sequence": "RRIRIRPPRLPRPRPRPMHSPRP", "shrunken log2 fold change": -0.0586}
{"sequence": "RRIRHRPPRLPRPRPRPQFYPRP", "shrunken log2 fold change": -0.192}
{"sequence": "RRIRDRPPRLPRPRPRPWPMPRP", "shrunken log2 fold change": -0.0379}
{"sequence": "RRIRKRPPRLPRPRPRPDRPPRP", "shrunken log2 fold change": 0.0953}
{"sequence": "RRIRGRPPRLPRPRPRPCDWPRP", "shrunken log2 fold change": 0.519}
{"sequence": "RRIRHRPPRLPRPRPRPDWIPRP", "shrunken log2 fold change": -0.111}
{"sequence": "RRIRQRPPRLPRPRPRPTTEPRP", "shrunken log2 fold change": 0.26}
{"sequence": "RRIRSRPPRLPRPRPRPNRYPRP", "shrunken log2 fold change": -0.296}
{"sequence": "RRIRQRPPRLPRPRPRPLNCPRP", "shrunken log2 fold change": -0.0264}
{"sequence": "RRIRCRPPRLPRPRPRPPRVPRP", "shrunken log2 fold change": 0.935}
{"sequence": "RRIRKRPPRLPRPRPRPKNRPRP", "shrunken log2 fold change": 0.226}
{"sequence": "RRIRGRPPRLPRPRPRPLRHPRP", "shrunken log2 fold change": 1.34}
{"sequence": "RRIRCRPPRLPRPRPRPDNGPRP", "shrunken log2 fold change": -0.0856}
{"sequence": "RRIRNRPPRLPRPRPRPDTQPRP", "shrunken log2 fold change": -0.149}
{"sequence": "RRIRIRPPRLPRPRPRPVPAPRP", "shrunken log2 fold change": 0.0984}
{"sequence": "RRIRLRPPRLPRPRPRPNCQPRP", "shrunken log2 fold change": 0.0269}
{"sequence": "RRIRRRPPRLPRPRPRPYVCPRP", "shrunken log2 fold change": -0.374}
{"sequence": "RRIRHRPPRLPRPRPRPVNNPRP", "shrunken log2 fold change": -1.17}
{"sequence": "RRIRMRPPRLPRPRPRPLGCPRP", "shrunken log2 fold change": 0.182}
{"sequence": "RRIRPRPPRLPRPRPRPSSCPRP", "shrunken log2 fold change": 0.0133}
{"sequence": "RRIRKRPPRLPRPRPRPVIKPRP", "shrunken log2 fold change": 0.0845}
{"sequence": "RRIRPRPPRLPRPRPRPEFHPRP", "shrunken log2 fold change": -0.0272}
{"sequence": "RRIRVRPPRLPRPRPRPLQLPRP", "shrunken log2 fold change": -0.091}
{"sequence": "RRIRARPPRLPRPRPRPSDFPRP", "shrunken log2 fold change": 0.0983}
{"sequence": "RRIRFRPPRLPRPRPRPWDLPRP", "shrunken log2 fold change": 2.08}
{"sequence": "RRIRVRPPRLPRPRPRPCHTPRP", "shrunken log2 fold change": -0.0202}
{"sequence": "RRIRQRPPRLPRPRPRPYFYPRP", "shrunken log2 fold change": -0.652}
{"sequence": "RRIRRRPPRLPRPRPRPYFMPRP", "shrunken log2 fold change": -0.353}
{"sequence": "RRIRCRPPRLPRPRPRPESVPRP", "shrunken log2 fold change": 0.025}
{"sequence": "RRIRYRPPRLPRPRPRPKGVPRP", "shrunken log2 fold change": 0.028}
{"sequence": "RRIRERPPRLPRPRPRPSWIPRP", "shrunken log2 fold change": -0.0746}
{"sequence": "RRIRERPPRLPRPRPRPPDWPRP", "shrunken log2 fold change": 0.674}
{"sequence": "RRIRTRPPRLPRPRPRPLKKPRP", "shrunken log2 fold change": -0.0468}
{"sequence": "RRIRWRPPRLPRPRPRPFSHPRP", "shrunken log2 fold change": -0.241}
{"sequence": "RRIRMRPPRLPRPRPRPQECPRP", "shrunken log2 fold change": 0.313}
{"sequence": "RRIRLRPPRLPRPRPRPKVGPRP", "shrunken log2 fold change": 0.109}
{"sequence": "RRIRPRPPRLPRPRPRPPHTPRP", "shrunken log2 fold change": 0.398}
{"sequence": "RRIRHRPPRLPRPRPRPVTFPRP", "shrunken log2 fold change": 0.00537}
{"sequence": "RRIRNRPPRLPRPRPRPKCEPRP", "shrunken log2 fold change": -0.0549}
{"sequence": "RRIRERPPRLPRPRPRPETEPRP", "shrunken log2 fold change": 0.192}
{"sequence": "RRIRCRPPRLPRPRPRPQWGPRP", "shrunken log2 fold change": 0.502}
{"sequence": "RRIRMRPPRLPRPRPRPDVRPRP", "shrunken log2 fold change": 0.111}
{"sequence": "RRIRKRPPRLPRPRPRPQACPRP", "shrunken log2 fold change": -0.109}
{"sequence": "RRIRMRPPRLPRPRPRPSCLPRP", "shrunken log2 fold change": -0.0926}
{"sequence": "RRIRTRPPRLPRPRPRPESHPRP", "shrunken log2 fold change": -0.164}
{"sequence": "RRIRLRPPRLPRPRPRPGIFPRP", "shrunken log2 fold change": -0.313}
{"sequence": "RRIRWRPPRLPRPRPRPTPDPRP", "shrunken log2 fold change": 0.746}
{"sequence": "RRIRVRPPRLPRPRPRPYHYPRP", "shrunken log2 fold change": -1.93}
{"sequence": "RRIRFRPPRLPRPRPRPMMGPRP", "shrunken log2 fold change": -0.0671}
{"sequence": "RRIRPRPPRLPRPRPRPHGFPRP", "shrunken log2 fold change": -0.21}
{"sequence": "RRIRERPPRLPRPRPRPGIGPRP", "shrunken log2 fold change": -0.0295}
{"sequence": "RRIRDRPPRLPRPRPRPCPRPRP", "shrunken log2 fold change": -0.126}
{"sequence": "RRIRQRPPRLPRPRPRPPYPPRP", "shrunken log2 fold change": -0.0407}
